From PMC12008863 (Journal of Translational Medicine, 2025)

How the values were obtained:
[1] = biological target: T1, Transthyretin (human, amino acids 21-147, recombinant) (human, UniProt P02766 21-147); assay: Langmuir equilibrium adsorption
[2] = biological target: T1, Transthyretin (human, amino acids …); assay: SPR

Kd [1]: 7.13 µM | Kd [2]: 3.68 µM
B1: Heterogeneous nuclear ribonucleoprotein A2B1 (human, amino acids 12-195, recombinant) (domain or fragment)
chain: RKKREKEQFRKLFIGGLSFETTEESLRNYYEQWGKLTDCVVMRDPASKRSRGFGFVTFSSMAEVDAAMAARPHSIDGRVVEPKRAVAREESGKPGAHVTVKKLFVGGIKEDTEEHHLRDYFEEYGKIDTIEIITDRQSGKKRGFGFVTFDDHDPVDKIVLQKYHTINGHNAEVRKALSRQEMQE
